Data taken from patent US20180162931A1.

Tests used:
[1] = target: rat α-CGRP (1-37) (rat); assay: Biacore 37 C, Fab over N-biotinylated rat α-CGRP on SA chip
[2] = target: human α-CGRP fragment 25-37 (human); assay: Biacore 25 C, Fab over N-biotinylated fragment on SA chip
[3] = target: human α-CGRP 1-37 (WT) (human); assay: Biacore 25 C, Fab over N-biotinylated CGRP on SA chip
[4] = target: human α-CGRP 1-37 (WT) (human); assay: Biacore 37 C, Fab over N-biotinylated CGRP on SA chip

Chain of human α-CGRP 1-37 (WT) (human) (peptide, as listed by the source): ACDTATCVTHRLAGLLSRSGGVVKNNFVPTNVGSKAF
Chain of rat α-CGRP (1-37) (rat) (peptide, as listed by the source): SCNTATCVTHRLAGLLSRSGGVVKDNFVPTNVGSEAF

Kd [1]: 3.4 nM
fold lower affinity than binding to full length human α-CGRP [2]: 6 fold
Kd [3]: 61 nM
Kd [4]: 139 nM
Substance: anti-CGRP monoclonal antibody 4901 (Sigma, Product No. C7113), Fab fragment
